Experiments:
B. pertussis LPS = test: Expression of PagL and PagP in B. pertussis strain Tohama, lipid A analysed by ESI-MS and Tricine-SDS-PAGE; type: cell-based; settings: for relative abundance of lipid A molecular ions: palmitoylate: Table III total of palmitoylated species
Description: LPS was isolated using the hot phenol/water extraction method (Westphal and Jann, Methods Carbohydr. Chem. 5; 83-91, 1965) with slight modifications. In short, bacteria were grown in THIJS medium in the presence of 1 mM IPTG (end concentration) for 64 h. Cells were harvested by centrifugation and resuspended in 40 mM sodium phosphate buffer (pH 7.0) containing 5 mM EDTA. The cells were treated overnight with lysozyme at 4° C., after which an equal volume of phenol was added. The suspension was heated to 70° C., incubated for 30 min while shaking, and subsequently cooled to 10° C., after which phases were separated by centrifugation for 10 min at 8,000×g. The upper phase was collected and the extraction was repeated after adding an equal volume of distilled water to the lower phase. The two upper phases were combined, dialysed against tap water until the phenol odour disappeared, freeze-dried, and subsequently taken up in distilled water. The LPS was subsequently pelleted by centrifugation for 3 h at 150,000×g and dissolved in distilled water, after which the LPS concentration was determined by analysing the 3-hydroxytetradecanoic acid content, using a 6890 Agilent gas chromatograph, as described (Welch, Clin. Microbiol. Rev. 1991). For ESI-MS, a 200 μl aliquot of isolated LPS (50 nmol/ml) was freeze-dried and taken up in 0.1 ml 2% acetic acid. The mixture was heated for 2 h at 95° C. to hydrolyse the LPS and release the lipid A moiety. Subsequently, the mixture was cooled to room temperature and centrifuged for 10 min at 16,100×g. The pellet was washed twice in 0.1 ml double-distilled water, taken up in 0.1 ml double-distilled water, and 0.3 ml chloroform/methanol (2:1, v/v) was added. After vigorous vortexing, phases were separated by centrifugation for 10 min at 16,100×g. The […] phase was then used for structural analysis of purified lipid A by nanoelectrospray tandem MS on a Finnigan LCQ in the negative ion mode (Wilm and Mann, Anal. Chem. 1996).
To express PagP and PagL in B. pertussis strain Tohama, the pagL gene of B. bronchiseptica (pagL(Bb)) and the pagP gene of B. pertussis (pagP(Bp)) were expressed from the broad-host range low-copy number expression vector pMMB67EH. As a control, a strain expressing the pagP gene of E. coli (pagP(Ec)) was also constructed. LPS was isolated from wild-type, PagP-expressing, or PagL-expressing B. pertussis strain Tohama and analysed by Tricine-SDS-PAGE. LPS isolated from the PagL(Bb)-expressing strain appeared unaffected on the gel, whereas that from the PagP-expressing appeared potentially modified, since a band with a lower electrophoretic mobility than that of wild-type B. pertussis LPS was detected (FIG. 14). Furthermore, as compared to the PagP(Bp)-expressing strain, the modification-efficiency appeared higher in the PagP(Ec)-expressing strain (FIG. 14). To evaluate the possible LPS modifications in further detail, the lipid A moieties of the strains were analysed by ESI-MS in the negative-ion mode. […] The peak at m/z 1557 represents the characteristic penta-acylated bis-phosphate species that is typically found in B. pertussis (Caroff et al., Microbes. Infect., 1994), whereas the peak at m/z 1477 corresponds to a penta-acylated mono-phosphate species. The two remaining peaks at m/z 1307 and 1251 represent deacylated lipid A species of the molecular ion at m/z 1477, which miss the primary 3-hydroxydecanoic acid residue at the 3 position or a primary 3-hydroxytetradecanoic acid residue (either at the 2 or the 3′ position), respectively. […] Furthermore, the large majority of lipid A species are mono-phosphate forms (˜80%). […]

E. coli LPS = test: In vivo modification of E. coli LPS by PagL expressed in E. coli BL21 Star (DE3) (Tricine-SDS-PAGE, GC/MS, ESI-MS); type: cell-based; settings: GC/MS and ESI-MS data
Description: To LPS-containing samples 0.5 mg/ml proteinase K (end concentration) was added to the sample buffer (28). The samples were incubated for 60 min at 55° C., followed by 10 min at 95° C. to inactivate proteinase K. The samples was then diluted 10 fold by adding sample buffer, after which 2 μl of the sample were applied to a Tricine-SDS-PAGE gel (30). The bromophenol blue was allowed to run into the separating gel at 35 V, after which the voltage was increased to 105 V. After the front reached the bottom of the gel, the samples were left running for another 45 min. The gels were fixed overnight in water/ethanol/acetic acid 11:8:1 (v/v/v) and subsequently stained with silver as described (31).
LPS was isolated using the hot phenol/water extraction method (3). […]
To study whether the cloned PagL homologs were active on E. coli LPS, IPTG was added to exponentially growing E. coli BL21 Star™ (DE3) cells containing the empty vector pET-11a or the pPagL plasmids, and after various incubation periods, samples equivalent to one OD600 unit were collected and their LPS content was analyzed by Tricine-SDS-PAGE. […]
Structural Analysis of PagL-Modified LPS: to determine its fatty acid content, LPS was isolated from bacteria that were grown in the presence of 10 mM MgCl2 to suppress PhoP/PhoQ-regulated modifications of lipid A and analyzed by GC/MS. […]

[1] = In vitro modification assay with refolded or membrane-localized PagL (Tricine-SDS-PAGE); type: biochemical; settings: purified N. meningitidis LPS
Description: Refolded PagL(Pa)(−) (10 mg/ml) or cell envelopes isolated from E. coli BL21 Star™ (DE3) containing the empty vector pET-11a or the pPagL plasmids were diluted 10 fold in double distilled water. 4 μl of the diluted refolded protein or cell envelope solution was incubated in 50 mM Hepes (pH 8.0), 0.1% Triton X-100, 0.5 M NaCl, and 0.75 nmol N. meningitidis L3-LPS in a final volume of 10 μl at 37° C. for 16 h. To test whether the reaction was dependent on divalent cations, 5 mM EDTA was added into the reaction with the refolded PagL(Pa)(−). The reactions were terminated by boiling in sample buffer (28), after which the samples were treated with 0.5 mg/ml proteinase K for 1 hour at 55° C., followed by 10 min incubation at 95° C. The samples were diluted 25 fold by adding sample buffer, after which 2 μl of the samples were analysed by Tricine-SDS-PAGE (see above).

[2] = B. pertussis strain Tohama, ESI-MS

B1: PagL(Bb): lipid A 3-O-deacylase PagL of B. bronchiseptica, SEQ ID No. 1 (protein, listed as Bordetella sp.)
chain: MQFLKKNKPLFGIVTLALACATAQAQPTQGGVSLHYGIGDHYQRVTLNYETPTLWSHQFGGNWGRLDLTPELGASYWWADGSRSPGHVWQASAIPMFRWWTGERFYIEAGIGATVFSSTSFADKRIGSAFQFGDHIGLGFLLTPSNRIGLRYSHFSNAGIKEPNPGLDIVQLTYTYQF
Question: For B1, which “relative content of lipid A species that miss the 3-hydroxydecanoic acid residue at their 3 position” value (B. pertussis LPS; B. pertussis strain Tohama, ESI-MS peak heights) is on record?
Answer: more than 92%

Question: And the “relative abundance of lipid A molecular ions: palmitoylate” value (B. pertussis LPS; [2])?
Answer: 0.0

Question: What about the “lipid A 3-O-deacylase activity in B. pertussis” value (B. pertussis LPS; B. pertussis strain Tohama, pMMB67EH expression, ESI-MS) of the same molecule?
Answer: active in B. pertussis

Question: What about the “lipid A deacylase activity” value (E. coli LPS) of the same molecule?
Answer: active lipid A deacylases

B2: PagP(Ec): palmitoyl transferase PagP of E. coli, expressed in B. pertussis as a control (protein, UniProt P37001 26-186, looked up)
Lipid A palmitoyltransferase …: NADEWMTTFRENIAQTWQQPEHYDLYIPAITWHARFAYDKEKTDRYNERPWGGGFGLSRWDEKGNWHGLYAMAFKDSWNKWEPIAGYGWESTWRPLADENFHLGLGFTAGVTARDNWNYIPLPVLLPLASVGYGPVTFQMTYIPGTYNNGNVYFAWMRFQF
Question: For B2, which “share of the total lipid A population palmitoylated” value (B. pertussis LPS; B. pertussis strain Tohama expressing PagP, ESI-MS) is on record?
Answer: ~47%

Question: And the “relative abundance of lipid A molecular ions: palmitoylate” value (B. pertussis LPS; [2])?
Answer: 46.5

Question: And the modification-efficiency (B. pertussis LPS; Tricine-SDS-PAGE of B. pertussis LPS, compared to the PagP(Bp)-expressing strain, FIG. 14)?
Answer: higher

B3: PagL(Pa): PagL homolog (lipid A 3-O-deacylase) of P. aeruginosa, SEQ ID No:6 (protein, listed as Pseudomonas aeruginosa)
chain: MKKLLPLAVLAALSSVHVASAQAADVSAAVGATGQSGMTYRLGLSWDWDKSWWQTSTGRLTGYWDAGYTYWEGGDEGAGKHSLSFAPVFVYEFAGDSIKPFIEAGIGVAAFSGTRVGDQNLGSSLNFEDRIGAGLKFANGQSVGVRAIHYSNAGLKQPNDGIESYSLFYKIPI
Question: With B3 as the molecule, how does the “lipid A deacylase activity” value (E. coli LPS) read?
Answer: active lipid A deacylases

B4: PagL(Pa)(−): P. aeruginosa PagL without its signal sequence, refolded in vitro from inclusion bodies and purified (protein, UniProt Q9HVD1 24-173, looked up)
Lipid A deacylase PagL: ADVSAAVGATGQSGMTYRLGLSWDWDKSWWQTSTGRLTGYWDAGYTYWEGGDEGAGKHSLSFAPVFVYEFAGDSIKPFIEAGIGVAAFSGTRVGDQNLGSSLNFEDRIGAGLKFANGQSVGVRAIHYSNAGLKQPNDGIESYSLFYKIPI
Question: What does the source list for B4?
Answer: in vitro deacylation of LPS in the presence of EDTA ([1]; 5 mM EDTA, FIG. 13B): deacylation of LPS was still observed; in vitro modification of externally added LPS ([1]; 37° C., detergent-containing buffer, FIG. 13): converted into a form with a higher electrophoretic mobility

From patent publication US8048433B2, “Deacylation of LPS in gram negative bacteria” (priority 2004, dated 2011)
